Experimental data reported in publication PMC8751750, “Effect of using different co-ligands during ^99mTc-labeling of J18 peptide on SK-MES-1 cell binding and tumor targeting” (Iranian Journal of Basic Medical Sciences, 2021).
Read-outs that look alike come from different tables or passages of the source. Peptide text beside a SMILES is read from it.

Key:
[1] = Biodistribution in SK-MES-1 xenografted nude mice; assay type: in vivo, female C57 nu/nu mice; details: female, C57 nu/nu, mouse, in vivo, iv, total radioactivity, SK-MES-1 xenograft nude mice, n=4; for tissue uptake at 1 h / tissue uptake at 2 h / tissue uptake at 4 h: mean ± SD
Procedure: (§1) The tumor biodistribution and targeting properties of the radiolabeled peptides were carried out in female C57 nu/nu mice bearing SK-MES-1 (Pasture Institute, North Branch and Amol, Iran). The tumor was grafted by subcutaneous injection of SK-MES-1 cells at a concentration of 4×10^6 cells/mouse into the right front flank of the mice and left to grow over a period of 20 days. The mice were ready for biodistribution when tumor size reached 0.7–1 cm^3 in mean diameter, all mice received intravenous co-injections of (^99mTc) Tc-HYNIC-(Ser)3-J18 peptide 1 or (^99mTc )Tc-HYNIC-(Ser)3-J18 peptide 2 (1 μg in 100 μl buffer) after 1, 2, and 4 hr post-injection, respectively (n=4 mice per group). In order to measure the radiopeptides’ nonspecific uptake of the radiopeptides, one group of four animals was injected with 300 μg of non-labeled peptide in a 50 μl buffer. The mice in the blocking group were euthanized 2 hr after the injection. Mice organ and tissue samples were collected, and radioactivity uptake was calculated as a percentage of the administered dose per gram tissue (%ID/g).

SK-MES-1 tumors = test: Biodistribution in SK-MES-1 xenografted nude mice; assay type: in vivo, female C57 nu/nu mice; details: SK-MES-1 xenograft nude mice, n=4; for Intestine uptake (with contents): mean ± SD
Procedure: as §1

[2] = 1 ug, i.v. 1 μg in 100 μl, read-out: Muscle uptake
[3] = 1 ug, i.v. 1 μg in 100 μl, read-out: Spleen uptake
[4] = 1 ug, i.v. 1 μg in 100 μl, read-out: Tumor uptake
[5] = 1 ug, read-out: Tumor/blood ratio
[6] = 1 ug, read-out: Tumor/bone ratio
[7] = 1 ug, read-out: Tumor/liver ratio
[8] = 1 ug, read-out: Tumor/muscle ratio

Q: For `CC(C)C[C@H](NC(=O)[C@H](CO)NC(=O)[C@H](CCCNC(=N)N)NC(=O)[C@H](CO)NC(=O)[C@H](CO)NC(=O)[C@H](CO)NC(=O)c1ccc(NN)nc1)C(=O)N[C@@H](Cc1c[nH]c2ccccc12)C(=O)N[C@@H](CO)C(=O)N[C@@H](CC(=O)O)C(=O)N[C@@H](Cc1ccccc1)C(=O)N[C@@H](Cc1ccc(O)cc1)C(=O)N[C@@H](C)C(=O)N[C@@H](CO)C(=O)N[C@@H](C)C(=O)N[C@@H](CO)C(=O)N[C@@H](CCCNC(=N)N)C(=O)NCC(=O)N1CCC[C@H]1C(=O)O` [Peptide 1, (^99mTc)Tc-HYNIC-(Ser)3-J18 with tricine, metal not drawn] (HELM PEPTIDE1{[NNc1ccc(C(=O)[*:2])cn1].S.S.S.R.S.L.W.S.D.F.Y.A.S.A.S.R.G.P}$$$$V2.0; C-terminus assumed), which tissue uptake at 1 h ([1]; 1 ug, i.v. 1 μg in 100 μl, read-out: Blood uptake) is on record?
A: The tissue uptake at 1 h was 0.18 ± 0.09 %ID/g.

Q: What about the tissue uptake at 1 h [1, 2] of the same compound?
A: The tissue uptake at 1 h was 0.19 ± 0.05 %ID/g.

Q: And the tissue uptake at 1 h [1, 3]?
A: The tissue uptake at 1 h was 0.25 ± 0.07 %ID/g.

Q: What about the tissue uptake at 1 h ([1]; 1 ug, i.v. 1 μg in 100 μl, read-out: Stomach uptake) of the same compound?
A: Its tissue uptake at 1 h is 0.38 ± 0.09 %ID/g.

Q: What about the tissue uptake at 1 h [1, 4] of the same compound?
A: Its tissue uptake at 1 h is 0.97 ± 0.03 %ID/g.

Q: And the tissue to tissue ratio at 1 h [1, 5]?
A: The tissue to tissue ratio at 1 h was 5.36.

Q: What about the tissue to tissue ratio at 1 h [1, 6] of the same compound?
A: Its tissue to tissue ratio at 1 h is 7.46.

Q: And the tissue to tissue ratio at 1 h [1, 7]?
A: Its tissue to tissue ratio at 1 h is 3.59.

Q: And the tissue to tissue ratio at 1 h [1, 8]?
A: The tissue to tissue ratio at 1 h was 5.1.

Q: What about the tissue uptake at 2 h ([1]; 1 ug, 2 hr, i.v. 1 μg in 100 μl, read-out: Heart uptake) of the same compound?
A: Its tissue uptake at 2 h is 0.12 ± 0.04 %ID/g.

Q: And the tissue uptake at 2 h ([1]; 1 ug, 2 hr, i.v. 1 μg in 100 μl, read-out: Liver uptake)?
A: The tissue uptake at 2 h was 0.2 ± 0.09 %ID/g.

Q: And the tissue uptake at 2 h ([1]; 1 ug, 2 hr, i.v. 1 μg in 100 μl, read-out: SG&T (salivary glands and thyroid) uptake)?
A: Its tissue uptake at 2 h is 0.13 ± 0.05 %ID/g.

Q: What about the tissue uptake at 2 h ([1]; 1 ug, 2 hr, i.v. 1 μg in 100 μl, read-out: Spleen uptake) of the same compound?
A: The tissue uptake at 2 h was 0.15 ± 0.04 %ID/g.

Q: And the tissue uptake at 2 h ([1]; 1 ug, 2 hr, i.v. 1 μg in 100 μl, read-out: Stomach uptake)?
A: The tissue uptake at 2 h was 0.25 ± 0.03 %ID/g.

Q: And the tissue uptake at 2 h ([1]; 1 ug, 2 hr, i.v. 1 μg in 100 μl, read-out: Tumor uptake)?
A: The tissue uptake at 2 h was 0.5 ± 0.03 %ID/g.

Q: What about the tissue to tissue ratio at 2 h ([1]; 1 ug, 2 hr, read-out: Tumor/liver ratio) of the same compound?
A: The tissue to tissue ratio at 2 h was 2.5.

Q: What about the tissue to tissue ratio at 2 h ([1]; 1 ug, 2 hr, read-out: Tumor/muscle ratio) of the same compound?
A: The tissue to tissue ratio at 2 h was 6.16.

Q: And the tissue uptake at 4 h ([1]; 1 ug, i.v. 1 μg in 100 μl, read-out: Bone uptake)?
A: Its tissue uptake at 4 h is 0.01 %ID/g.

Q: What about the tissue uptake at 4 h ([1]; 1 ug, i.v. 1 μg in 100 μl, read-out: Heart uptake) of the same compound?
A: The tissue uptake at 4 h was 0.07 ± 0.01 %ID/g.

Q: What about the tissue uptake at 4 h ([1]; 1 ug, i.v. 1 μg in 100 μl, read-out: Kidney uptake) of the same compound?
A: Its tissue uptake at 4 h is 0.27 ± 0.03 %ID/g.

Q: What about the tissue uptake at 4 h ([1]; 1 ug, i.v. 1 μg in 100 μl, read-out: Liver uptake) of the same compound?
A: The tissue uptake at 4 h was 0.07 ± 0.02 %ID/g.

Q: What about the tissue uptake at 4 h ([1]; 1 ug, i.v. 1 μg in 100 μl, read-out: Lung uptake) of the same compound?
A: Its tissue uptake at 4 h is 0.04 ± 0.01 %ID/g.

Q: What about the tissue uptake at 4 h [1, 2] of the same compound?
A: The tissue uptake at 4 h was 0.04 ± 0.01 %ID/g.

Q: And the tissue uptake at 4 h ([1]; 1 ug, i.v. 1 μg in 100 μl, read-out: SG&T (salivary glands and thyroid) uptake)?
A: The tissue uptake at 4 h was 0.03 ± 0.02 %ID/g.

Q: What about the tissue uptake at 4 h [1, 3] of the same compound?
A: Its tissue uptake at 4 h is 0.03 ± 0.01 %ID/g.

Q: What about the tissue uptake at 4 h [1, 4] of the same compound?
A: The tissue uptake at 4 h was 0.2 ± 0.09 %ID/g.

Q: What about the tissue to tissue ratio at 4 h [1, 5] of the same compound?
A: Its tissue to tissue ratio at 4 h is 3.81.

Q: What about the tissue to tissue ratio at 4 h [1, 6] of the same compound?
A: Its tissue to tissue ratio at 4 h is 20.

Q: What about the tissue to tissue ratio at 4 h ([1]; 1 ug, read-out: Tumor/kidney ratio) of the same compound?
A: The tissue to tissue ratio at 4 h was 0.74.

Q: What about the tissue to tissue ratio at 4 h [1, 7] of the same compound?
A: The tissue to tissue ratio at 4 h was 2.85.

Q: What about the tissue to tissue ratio at 4 h [1, 8] of the same compound?
A: The tissue to tissue ratio at 4 h was 5.

Q: And the tissue uptake at 2 h ([1]; 2h-blocked (300 μg non-labeled peptide 0.5 hr before), i.v. 1 μg, read-out: Blood uptake)?
A: Its tissue uptake at 2 h is 0.36 ± 0.02 %ID/g.

Q: And the tissue uptake at 2 h ([1]; 2h-blocked (300 μg non-labeled peptide 0.5 hr before), i.v. 1 μg, read-out: Heart uptake)?
A: The tissue uptake at 2 h was 0.18 ± 0.03 %ID/g.

Q: And the tissue uptake at 2 h ([1]; 2h-blocked (300 μg non-labeled peptide 0.5 hr before), i.v. 1 μg, read-out: Kidney uptake)?
A: The tissue uptake at 2 h was 3.2 ± 0.02 %ID/g.

Q: And the tissue uptake at 2 h ([1]; 2h-blocked (300 μg non-labeled peptide 0.5 hr before), i.v. 1 μg, read-out: Liver uptake)?
A: The tissue uptake at 2 h was 0.23 ± 0.04 %ID/g.

Q: What about the tissue uptake at 2 h ([1]; 2h-blocked (300 μg non-labeled peptide 0.5 hr before), i.v. 1 μg, read-out: Muscle uptake) of the same compound?
A: Its tissue uptake at 2 h is 0.23 ± 0.03 %ID/g.

Q: What about the tissue uptake at 2 h ([1]; 2h-blocked (300 μg non-labeled peptide 0.5 hr before), i.v. 1 μg, read-out: SG&T (salivary glands and thyroid) uptake) of the same compound?
A: Its tissue uptake at 2 h is 0.17 ± 0.02 %ID/g.

Q: What about the tissue uptake at 2 h ([1]; 2h-blocked (300 μg non-labeled peptide 0.5 hr before), i.v. 1 μg, read-out: Spleen uptake) of the same compound?
A: Its tissue uptake at 2 h is 0.2 ± 0.01 %ID/g.

Q: And the tissue uptake at 2 h ([1]; 2h-blocked (300 μg non-labeled peptide 0.5 hr before), i.v. 1 μg, read-out: Stomach uptake)?
A: Its tissue uptake at 2 h is 0.3 ± 0.02 %ID/g.

Q: What about the tissue to tissue ratio at 2 h ([1]; 2h-blocked (300 μg non-labeled peptide), read-out: Tumor/blood ratio) of the same compound?
A: Its tissue to tissue ratio at 2 h is 0.8.

Q: What about the tissue to tissue ratio at 2 h ([1]; 2h-blocked (300 μg non-labeled peptide), read-out: Tumor/liver ratio) of the same compound?
A: Its tissue to tissue ratio at 2 h is 1.26.

Q: And the tissue to tissue ratio at 2 h ([1]; 2h-blocked (300 μg non-labeled peptide), read-out: Tumor/muscle ratio)?
A: The tissue to tissue ratio at 2 h was 1.26.

Q: What about the “Intestine uptake (with contents)” value (SK-MES-1 tumors; 1 hr, i.v. 1 μg in 100 μl) of the same compound?
A: Its value is 0.73±0.06 percentage of injected dose per whole sample.

Q: And the Tumor/muscle ratio (SK-MES-1 tumors; 1 hr, listed as 99mTc-peptide 1)?
A: The Tumor/muscle ratio was 5.1.

Q: And the “Intestine uptake (with contents)” value (SK-MES-1 tumors; 2h-blocked (300 μg non-labeled peptide 0.5 hr before), i.v. 1 μg)?
A: The value was 0.24 ±0.09 percentage of injected dose per whole sample.

Q: And the “Intestine uptake (with contents)” value (SK-MES-1 tumors; 2 hr, i.v. 1 μg in 100 μl)?
A: The value was 0.59±0.02 percentage of injected dose per whole sample.

Q: And the “Intestine uptake (with contents)” value (SK-MES-1 tumors; 4 hr, i.v. 1 μg in 100 μl)?
A: Its value is 0.04±0.01 percentage of injected dose per whole sample.
